What all share (assay): BLI; Octet RED384; MAb (1 µg/mL) captured on anti-human IgG Fc (AHC) biosensors; RSV G^ecto proteins in solution, 40 nM 2-fold serially diluted to 0.63 nM (higher starting concentrations for CX4C); PBS pH 7.4, 0.05% Tween 20, 1% BSA; association 300 s, dissociation 600 s; global 1:1 fit; in duplicate
Experiment [1] concerns the target human anti-RSV G monoclonal antibody 2D10 (human).
Experiment [2] has as its target human anti-RSV G monoclonal antibody 3G12 (human).
For experiment [3], the target named is human anti-RSV G monoclonal antibody 3D3 (human).
The target of experiment [4] is T1, RSV G ectodomain wild-type protein (RSV strain A2, residues 64 to 298) (Human respiratory syncytial virus A, …, UniProt P03423).
T1 construct: glycosylated, runs at about 90 kDa on SDS-PAGE; also called RSV G^ecto WT; wild-type RSV G
The settings on record: both partners purified.

Our source for the Kd, koff and kon values is article PMC9006937, “Structure-Based Design and Antigenic Validation of Respiratory Syncytial Virus G Immunogens” (Journal of Virology, 2022).

Values joined by “and” are separate entries in the source; they are usually repeats but may differ in a detail not shown here. Equal values may be shown once.

With “RSV G ectodomain S177Q mutant protein (residues 64 to 298) (from UniProt P03423 64-298) (domain or fragment)”, in experiment [1], the Kd is 0.605 nM and 0.485 nM; the koff was 0.000225 s⁻¹ and 0.00015 s⁻¹; the kon was 371000 M⁻¹ s⁻¹ and 310000 M⁻¹ s⁻¹. In experiment [2], the Kd was 1.88 nM and 2.28 nM; the off-rate (koff) was 0.000447 s⁻¹ and 0.000528 s⁻¹; the association rate constant (kon) was 238000 M⁻¹ s⁻¹ and 232000 M⁻¹ s⁻¹. For the same molecule, in experiment [3], the Kd is 0.538 nM and 0.264 nM; the off-rate constant (koff) was 0.000199 s⁻¹ and 0.000109 s⁻¹; the association rate constant (kon) was 369000 M⁻¹ s⁻¹ and 414000 M⁻¹ s⁻¹.
Regarding “RSV G ectodomain S177R mutant protein (residues 64 to 298) (from UniProt P03423 64-298) (domain or fragment)”, the equilibrium dissociation constant (Kd) was below 0.001 nM in experiment [1]; 4.34 nM and 4.6 nM in experiment [2]; 0.422 nM and 0.57 nM in experiment [3]. The koff is below 1e-07 s⁻¹ in experiment [1]; 0.000581 s⁻¹ and 0.000672 s⁻¹ in experiment [2]; 0.000104 s⁻¹ and 0.000151 s⁻¹ in experiment [3]. In addition, the kon in experiment [1] is 318000 M⁻¹ s⁻¹ and 253000 M⁻¹ s⁻¹; in experiment [2] it was 134000 M⁻¹ s⁻¹ and 146000 M⁻¹ s⁻¹; in experiment [3], 247000 M⁻¹ s⁻¹ and 265000 M⁻¹ s⁻¹.

B1: human anti-RSV G monoclonal antibody 3D3 (antibody, V domains shown)
VH: EEQLVESGGGLVQPGRSLRLSCVGSGLRFEEHAMHWVRQAPGRGLEWVSGISWNSGSVGYADSVKGRFTTSRDNAKDILFLEMNTLRSEDTALYFCAIMVATTKNDFHYYKDVWGKGTTVTVSS
VL: QIVLTQSPATLSLSPGERATLSCRASQSVSNHLAWYQQKPGQAPRLLIYETSNRATGIPPRFSGSGSGTDFTLTISSLEPEDFAVYYCQQRNNWYTFGQGTKLEIK
notes: heavy chain of human MAb 3D3; light chain of human MAb 3D3; Whole IgG, captured by anti-human IgG Fc biosensors; also called MAb 3D3
B1: in experiment [4], the Kd is below 0.001 nM; the koff is below 1e-07 s⁻¹; the kon was 426000 M⁻¹ s⁻¹ and 431000 M⁻¹ s⁻¹.

B2: human anti-RSV G monoclonal antibody 2D10 (antibody, V domains shown)
VH: QVQLVQSGPEVKKPGASVRLSCKASGYVFTNYGVSWVRQAPGQGLEWMGWSSPYNGNTYYAQKLKARVTMTTDTSTNTAYMELRSLRSDDTAVYYCGRDMLGVVQAVAGPFDSWGQGTLVTVSS
VL: DTPMTQSPSSVSASVGDRVTISCRASQGISNSLAWYQQKLGKAPQLLIYAASSLQSGVPSRFSGSGSGTDFTLTISSLQPEDFATYYCQQTNTFPFTFGPGTKVEVR
notes: heavy-chain variable region of human MAb 2D10; human IgG1 heavy-chain constant region as in the pCMVR VRC01 heavy-chain vector (AIDS Reagent Program); light-chain variable region of human MAb 2D10; light-chain constant region of the pCMVR VRC01 light-chain vector; IgG1; variable regions of 2D10 put in place of those of antibody VRC01 in the pCMVR VRC01 vectors; also called MAb 2D10
Take B2: in experiment [4], the Kd was below 0.001 nM; the koff was below 1e-07 s⁻¹; the kon was 370000 M⁻¹ s⁻¹ and 383000 M⁻¹ s⁻¹.

B3: human anti-RSV G monoclonal antibody 3G12 (antibody, V domains shown)
VH: QLQLQESGPGLVKPSETLSLTCTVSGGSISSSNYYWGWIRQPPGKGLEWIASIHDSGSIYYNPSLRSRVTISVDTSKNQFSLKLSSVTAADTAVYYCARHLVWFGELRNNWFDPWGQGTLVTVAS
VL: EIVMTQSPATLSVSPGERATLSCRASQSVNSNLAWYQHKPGQAPRLLIYGASTRATGIPARFSGSGSGTDFTLTISSLQSEDFAVYYCQQYNNWPLFGPGTKVDLK
notes: heavy chain of human MAb 3G12; light chain of human MAb 3G12; Whole IgG, captured by anti-human IgG Fc biosensors; also called MAb 3G12
Consider B3, for which, in experiment [4], the equilibrium dissociation constant (Kd) is 0.26 nM and 0.262 nM; the koff was 6.55e-05 s⁻¹ and 5.19e-05 s⁻¹; the kon was 252000 M⁻¹ s⁻¹ and 198000 M⁻¹ s⁻¹.

Broadly, the Kd is a measure of binding affinity in units of concentration. High values mean lower affinity, low ones higher affinity. The koff is a measure of how fast the partners let go of each other. A low value points to a long-lived complex. What is called kon is a measure of how fast the partners come together. Low values mean slower complex formation, high ones faster complex formation.
